Source: patent US20260108617A1, “AUTO-TUNING DRUG REGULATOR CONSTRUCTIONS” (priority 2023, published 2026)

Experiments:
[1] = target: recombinant prostasin enzyme (Homo sapiens, UniProt Q16651); test: Incubation with recombinant prostasin enzyme, LC/MS analysis of incapacitation byproduct; format: biochemical
Method: This is not observed in absence of the enzyme incubation.
Then in FIG. 10, incubation of the drug alone with the prostasin enzyme can be analyzed by LC/MS for the byproduct of incapacitation (the alkylation of the decoy yielding a 1-methylpiperazine-one).
The drug could be tested in similar ways as the other compounds.
The strategy of this example can be generalized for any peptide based PROTAC for TrkA or any other target.

[2] = Cell uptake by imaging of conjugated dancyl fluorophore; format: cell-based; conditions: data not shown
Text: Compound 9 was shown efficacious in these experiments.

recombinant prostasin enzyme, sequence (Q16651 33-343, species assumed): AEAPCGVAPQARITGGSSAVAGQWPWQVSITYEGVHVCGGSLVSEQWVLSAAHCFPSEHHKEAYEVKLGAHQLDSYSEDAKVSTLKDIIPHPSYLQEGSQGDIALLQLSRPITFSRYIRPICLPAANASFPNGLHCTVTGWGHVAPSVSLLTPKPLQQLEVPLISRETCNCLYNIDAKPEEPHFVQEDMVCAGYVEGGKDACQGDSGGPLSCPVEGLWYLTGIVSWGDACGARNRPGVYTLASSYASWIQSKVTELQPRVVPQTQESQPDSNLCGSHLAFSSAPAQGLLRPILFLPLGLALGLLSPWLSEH

| incapacitation byproduct seen by LC/MS ([1]; absence of the enzyme incubation) | incapacitation byproduct seen by LC/MS ([1]; incubated with recombinant prostasin enzyme) | Sequence | cell uptake [2] |
| --- | --- | --- | --- |
| not observed | independent activator byproduct | LFLGQARGGRRRRPPP |  |
|  |  | RRARRPRGRQAR | demonstrated for cell uptake |
